Results reported in article PMC10514558, “Suramin inhibits SARS-CoV-2 nucleocapsid phosphoprotein genome packaging function”.

What was measured:
[1] = target: SARS-CoV-2 N CTD (SARS-CoV-2, UniProt P0DTC9 247-364); assay: MST; conditions: protein: recombinant; tags: 6xHis; chain copies: 2; label: 5'-Cy5
[2] = target: SARS-CoV-2 N NTD (SARS-CoV-2, UniProt P0DTC9 44-180); assay: MST; 20 nM RNA; no suramin; apparent Kd; conditions: protein: recombinant; tags: 6xHis; label: 5'-Cy5

AUUAAAG (ssRNA) [Cy5-ssRNA 7-mer]
Kd [1]: 5.3 ± 0.2 µM
Kd [2]: 30.6 ± 4.9 µM
